Reference: the supplement of paper PMC12764529
± gives the half width of the 95% confidence interval.

Experiments:
[1] = folding stability dG unfold from trypsin proteolysis; higher = more stable
Procedure, shortened: (§1)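 Only designs with AlphaFold2 dimer inter-PAE above 15 were retained; each was a mini-protein under 80 residues with no cysteine, in a PA-tagged cDNA display construct. After digestion with trypsin and chymotrypsin and sequencing, K50 was inferred by Bayesian fitting of counts, and unfolding free energy was derived per protease or combined against a sequence-predicted unfolded-state K50 and a shared folded-state K50.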

[2] = folding stability dG unfold from chymotrypsin proteolysis; higher = more stable
Procedure, shortened: as §1

[3] = folding stability dG unfold (combined trypsin and chymotrypsin); higher = more stable
Procedure, shortened: as §1

Row | Sequence | folding stability dG unfold [1] | folding stability dG unfold [2] | folding stability dG unfold [3]
1 | SDPILEILKDAFQEFGIPVQVSIEPDPDGKRVIPIRIMSPKDMDENGMKMQEQTFPIKVNGKKWRVEISWSA [r9_489_TrROS] | 1.45 ± 0.084 kcal/mol | 1.31 ± 0.14 kcal/mol | 1.41 ± 0.11 kcal/mol
2 | SAGGPETRTFTIPAAPATVTVTLEKVGDGYRVSLTLTNPDGQTVEVPPDQPVVIPAGASVGAALAPESAGGS [r16_669_TrMRF] | 1.01 ± 0.034 kcal/mol | 1.53 ± 0.091 kcal/mol | 1.35 ± 0.1 kcal/mol
3 | SAMKIIIKLPKNVKPIKAEELEKIPGIKVVKIEIYKGEDGVYYLLIEIEESIPPEKLKELEEKIREIAGSAG [r14_421_TrMRF] | 4.44 ± 0.28 kcal/mol | 5.41 ± 0.15 kcal/mol | 5.81 ± 0.41 kcal/mol
4 | SAGGSAGGMEKYKVTITIERPDPNNPDVKTTEVTEVVLTPEEIEKLKKELAPTGYRVEITVIDESAGGSAGG [r6_857_JUSTAS] | 2.6 ± 0.14 kcal/mol | 2.51 ± 0.086 kcal/mol | 2.45 ± 0.15 kcal/mol
5 | SAGGSAGGSAGEEEELPLVIRVRFKGPEEVEIEIEAESLEDALAAIESLPDIEEIEILPRSAGGSAGGSAGG [r11_587_TrROS_Hall] | 0.632 ± 0.034 kcal/mol | 1.982 ± 0.0079 kcal/mol | 1.61 ± 0.055 kcal/mol
6 | SAGGSAGGSAMTPETIKEKYPNVDYSPSPLGGKTVYTFTFPSGSTVTVTFNPGSATITTIAGSAGGSAGGSA [r18_13_JUSTAS] | 2.26 ± 0.13 kcal/mol | 3.38 ± 0.07 kcal/mol | 2.96 ± 0.11 kcal/mol
7 | SAGGYELELVFRFKLELKVGDGTLSFDLDLVIRIPLEPPAVPIGVEVKEDGSLVLTYPNGLKAEIPLSAGGS [r16_136_TrMRF] | 3.32 ± 0.14 kcal/mol | 4.21 ± 0.06 kcal/mol | 3.93 ± 0.087 kcal/mol
8 | SAGGSAGGSAGKKITIELPEGVKVYKLPNENDYIIVEDEKTKEKYIFKIKDGKVELIEKLSAGGSAGGSAGG [r11_1036_TrROS_Hall] | 1.01 ± 0.054 kcal/mol | 1.86 ± 0.15 kcal/mol | 1.47 ± 0.14 kcal/mol
9 | MPLGLESERYPNGAPTIESVEVPEDGSVKITLYFPETGEKVEYTLPPNIPPGTEYEIDLPGPTGTGRLRLGS [r1_43_TrMRF] | -0.204 ± 0.2 kcal/mol | 1.65 ± 0.15 kcal/mol | 1.27 ± 0.2 kcal/mol
10 | SAGGIVVGEEGVVRITGPGEPVIIPLPENSEVVEIDVPDDGYVRITLRVDGKTVTVDFPSAPPGLTLSAGGS [r16_635_TrMRF] | 1.34 ± 0.038 kcal/mol | 0.355 ± 0.041 kcal/mol | 0.927 ± 0.051 kcal/mol
11 | SPEIKIEVFKNEDGEEIFIKIEVPPGWRIRIIYNGKEIEEIEVDGYRIRFEEVDGKLRIEVEPLPPGEKPSA [r9_221_TrROS_Hall] | 3.87 ± 0.081 kcal/mol | 5.48 ± 0.15 kcal/mol | 5.2 ± 0.27 kcal/mol
12 | SAGGSAKTVTVEVTLEDGTKITVTVPEDMSEEERKALAQELAEELREKLRQLRELEKEGKEVRIEPSAGGSA [r15_704_TrROS_Hall] | 1.02 ± 0.023 kcal/mol | 2.72 ± 0.042 kcal/mol | 2.23 ± 0.051 kcal/mol
13 | SAGGSAGGSAGVPDNAKIRLAFEFDGYIVLIEATPGTGFIKNIDKVEVFPVIPNTGEVTGSAGGSAGGSAGG [r11_66_TrMRF] | 1.53 ± 0.07 kcal/mol | 1.85 ± 0.1 kcal/mol | 1.79 ± 0.13 kcal/mol
14 | SAGGTLTLLVEVDGLLVRVTAEVRLVYDPETDELTLEVRVRVEVRPLPAPPPPLVVVRDADGRLRLLSAGGS [r8_46_TrROS_Hall] | 1.03 ± 0.095 kcal/mol | 2.71 ± 0.042 kcal/mol | 2.22 ± 0.08 kcal/mol
15 | SAGGSAGGSRLDATRALLDKLPPGSVTVTVYVNGKPVTFRFGSREEIEEAIEANPDVEVEIEPASAGGSAGG [r6_421_TrMRF] | 0.93 ± 0.13 kcal/mol | 1.74 ± 0.16 kcal/mol | 1.38 ± 0.098 kcal/mol
16 | SAGGSAGGSKKPKAKIKKIEFFPEGNKIVALVEFPDKVIKEIVFENLPPEEAIKKALEFAKKGSAGGSAGGS [r20_181_TrMRF] | 1.08 ± 0.036 kcal/mol | 1.42 ± 0.039 kcal/mol | 1.31 ± 0.12 kcal/mol
17 | SAGGSAGGSAGKAESGDNAITLTLPGGHKVTIPNLPPNEPVWVKLNNRWVKIGDLKVNPKSAGGSAGGSAGG [r11_16_TrMRF] | -0.131 ± 0.16 kcal/mol | 0.227 ± 0.25 kcal/mol | 0.196 ± 0.18 kcal/mol
18 | SAGMEVKVETVTIEIEVDGKKIEIKVVRVEVRNEDGSIYEFTFIEITVPEDVSEEELRKLLEELGLEPESAG [r5_486_TrROS_Hall] | 2.64 ± 0.12 kcal/mol | 4.1 ± 0.31 kcal/mol | 3.77 ± 0.29 kcal/mol
19 | SGMDSNPKTTTENISFEEALKRLPSSVTSVEPRGESVVIKQSSPDSLTVVTMTRDPSSDSAPATTTTYLSSA [r9_604_JUSTAS] | 0.304 ± 0.087 kcal/mol | 0.181 ± 0.36 kcal/mol | 0.341 ± 0.17 kcal/mol
20 | SAGGSAGGSAAMTVSEVSSSPDPSSDYLSFEVRTTETVKVPGTKAPVTTTVTTTPTKVSKLLSAGGSAGGSA [r18_41_JUSTAS] | -0.237 ± 0.12 kcal/mol | -0.177 ± 0.25 kcal/mol | -0.111 ± 0.12 kcal/mol
21 | SAGGMKIKTKSGKELTLKKIKLKYKNKEYEIENLKIKAIKYDPKKKIVHIEVTHPNGKKYTFDLKIKSAGGS [r8_215_TrMRF] | 1.69 ± 0.052 kcal/mol | 3.49 ± 0.086 kcal/mol | 2.8 ± 0.21 kcal/mol
